According to article PMC5358783, “Structural insights into the regulation of Bacillus subtilis SigW activity by anti-sigma RsiW” (PLoS ONE, 2017):

Target: T1, cytoplasmic domain of Bacillus subtilis anti-sigma RsiW (residues 1-80), reduced, zinc-bound (B. subtilis 168 strain, UniProt Q45588 1-80)
T1 construct: RsiW, anti-sigma-W factor of Bacillus subtilis 168, cytoplasmic domain, residues 1-80; Coordinates one zinc ion through C3, H30, C34 and C37 (CHCC motif); The Hisx6-thioredoxin tag was removed with TEV protease after the first IMAC step; also called RsiW_(cyto); RsiWcyto; not shown: His6, N-terminal, cleaved; thioredoxin, N-terminal, cleaved
T1 sequence (looked up): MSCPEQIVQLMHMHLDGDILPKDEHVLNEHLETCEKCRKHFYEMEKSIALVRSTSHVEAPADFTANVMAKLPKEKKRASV
Assay: SEC-MALS; purified SigW/RsiWcyto complex injected into a Superdex200 analytical column with inline DAWN HELEOS MALLS and Optilab rEX refractive index detectors; molecular weight of the complex approximately 31.5 kDa
Settings: both partners purified

B1: Bacillus subtilis SigW (residues 1-187) (natural protein, B. subtilis 168 strain, UniProt Q45585 1-187, looked up)
chain: MEMMIKKRIKQVKKGDQDAFADIVDIYKDKIYQLCYRMLGNVHEAEDIAQEAFIRAYVNIDSFDINRKFSTWLYRIATNLTIDRIRKKKPDYYLDAEVAGTEGLTMYSQIVADGVLPEDAVVSLELSNTIQQKILKLPDKYRTVIVLKYIDELSLIEIGEILNIPVGTVKTRIHRGREALRKQLRDL
notes: SigW, ECF (group IV) sigma factor of Bacillus subtilis 168, residues 1-187; domains sigmaW2 (residues 3-95) and sigmaW4 (residues 125-187) joined by a disordered loop (96-125); No tag on SigW itself (cloned in MCS2 of pET-DUET1); it is purified through the His-tagged RsiWcyto; A selenomethionine-labelled complex (E. coli B834 (DE3)) was used for phasing only; also called sigma factor SigW; ECF …
stoichiometry N: 1 SigW per RsiWcyto
